According to patent publication US10052364B2, “Osteocalcin as a treatment for cognitive disorders” (THE TRUSTEES OF COLUMBIA UNIVERSITY IN THE CITY OF NEW YORK, priority 2013, dated 2018):

Assays:
[1] = test system: brainstem and midbrain explants from WT and Gprc6a-/- mice; assay: Gene expression (qPCR) in brainstem and midbrain explants; assay type: cell-based, mouse
Experimental: For gene expression studies, RNA was isolated from primary neurons or tissue using TRIZOL® (Invitrogen). cDNA synthesis was performed following a standard protocol from Invitrogen and qPCR analyses were done using specific quantitative PCR primers from SABiosciences (www.sabiosciences.com/RT2PCR.php).
Brains were dissected and incubated for 30 minutes in ice cold oxygenated artificial cerebrospinal fluid (ACSF). Brains were then sliced at 500 μm at the midbrain, −1.55 to −2.35 mm from the bregma, and at the level of the brainstem, from −4.04 to −4.48 mm and from −4.60 to −5.20 mm from the bregma, to include the median and dorsal raphe, respectively. These slices were incubated in ACSF for 1 h, constantly oxygenated (95% 02 and 5% CO2) for 4 h, after which they were treated with either osteocalcin (10 ng/ml) or PBS for four hours. Expression of Tph2, TH, GAD1, GAD2, and Ddc was measured by qPCR.
To determine if osteocalcin acts directly on neurons to modulate neurotransmitter synthesis, several types of assays were performed. First, brainstem and midbrain explants from WT and Gprc6a^−/− mice were generated. Brains were sliced (500 μm) at the level of the median and dorsal raphe of the brainstem (from −4.04 to −4.48 mm and from −4.60 to −5.20 mm, respectively), so that they would be enriched in serotonin-producing neurons, as well as at the level of substantia nigrae and ventral tegmental areas (VTA) of the midbrain (from −1.55 to −2.35 mm and from −2.55 to −3.25 mm, respectively). Enrichment in serotoninergic and catecholaminergic neurons in these explants was verified by their high Tph2 and Th expression. While leptin, used here as a positive control, reduced, as it should, Tph2 expression in WT or Gprc6a^−/− brainstem explants, osteocalcin (3 ng/ml) increased expression of this gene 2.5 fold in both WT and Gprc6a^−/− explants. (FIG. 3D). Additionally, osteocalcin increased Th expression in midbrain explants and decreased Gad1 expression in both WT and in Gprc6a^−/− hindbrain explants (FIG. 3D). Second, the cultured WT and Gprc6a^−/− mouse primary hindbrain neurons (MPHN) were treated with osteocalcin (3 ng/ml). […] Third, to further confirm that osteocalcin signals in neurons of the hindbrain, calcium flux in MPHN treated with undercarboxylated or carboxylated osteocalcin (FIG. 3F) was measured. […] Moreover, osteocalcin inhibits the action potential frequency of the GABAergic interneurons of the hindbrain (FIG. 3H).

[2] = test system: mouse primary hindbrain neurons (MPHN); assay: Calcium flux in primary hindbrain neurons; assay type: cell-based; settings: MPHN treated with undercarboxylated or carboxylated osteocalcin
Experimental: For calcium imaging, primary hindbrain neurons seeded on 12 mm coverslips were allowed the appropriate time to form structural networks. These cultures were washed with HBSS and loaded with 2.5 μM FURA-2, AM calcium indicator for 45 minutes at room temperature, according to the manufacturer's protocol. Cells were then washed to remove excess indicator and incubated for 30 minutes to allow internalized esters to become de-esterified. 30 ng/ml of osteocalcin was prepared with the control buffer of 1×HBBS supplemented with 10 mM HEPES buffer and 2 mM CaCl2. Using a Zeiss microscope with a perfusion system, coverslips were first perfused with control and osteocalcin. After each stimulation, cells were depolarized with 50 mM KCl to determine the percentage of live cells being imaged. All treatments were recorded using two-photon laser scanning microscopy by Prairie Technologies and analyzed by Z axis profile plotting using ImageJ.
To determine if osteocalcin acts directly on neurons to modulate neurotransmitter synthesis, several types of assays were performed. First, brainstem and midbrain explants from WT and Gprc6a^−/− mice were generated. […] Third, to further confirm that osteocalcin signals in neurons of the hindbrain, calcium flux in MPHN treated with undercarboxylated or carboxylated osteocalcin (FIG. 3F) was measured. […]

B1: uncarboxylated osteocalcin: Recombinant osteocalcin bacterially produced, cleaved from the GST subunit; completely undercarboxylated at all three sites (protein, listed as Homo sapiens)
chain: MRALTLLALLALAALCIAGQAGAKPSGAESSKGAAFVSKQEGSEVVKRPRRYLYQWLGAPVPYPDPLEPRREVCELNPDCDELADHIGFQEAYRRFYGPV
modifications: uncarboxylated
notes: Recombinant osteocalcin bacterially produced, cleaved from the GST subunit; completely undercarboxylated at all three sites
- Tph2 expression in brainstem explants ([1]; osteocalcin 3 ng/ml, WT and Gprc6a-/- explants): 2.5 fold
- Gad1 expression in hindbrain explants ([1]; osteocalcin, WT and Gprc6a-/- hindbrain explants): decreased
- Th expression in midbrain explants ([1]; osteocalcin, midbrain explants): increased
- calcium fluxes in primary hindbrain neurons [2]: induced changes in calcium fluxes
